Molecular target: T1, GST (UniProt P08515 1-218 = GST)
T1 construct: Control protein; also called GST itself
Test: Far-Western blot with radioactively labeled probe
Description: A bacterially expressed GST-GRB2 fusion protein containing a 5 amino acid RRASV heart muscle kinase site was purified and radioactively labeled with [³²P]ATP.

T1 sequence (P08515 whole entry): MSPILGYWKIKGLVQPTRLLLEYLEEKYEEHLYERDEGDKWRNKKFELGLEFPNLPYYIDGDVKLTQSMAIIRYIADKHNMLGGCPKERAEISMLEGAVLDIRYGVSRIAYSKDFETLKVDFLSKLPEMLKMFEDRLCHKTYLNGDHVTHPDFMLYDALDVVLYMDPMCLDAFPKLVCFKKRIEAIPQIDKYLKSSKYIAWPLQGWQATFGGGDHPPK

B1: p85 SH3 domain (amino acids 1-81) (other, UniProt P26450 1-81, looked up)
chain: MSAEGYQYRALYDYKKEREEDIDLHLGDILTVNKGSLVALGFSDGQEARPEDIGWLNGYNETTGERGDFPGTYVEYIGRKR
modifications: radioactively labeled
notes: range 1-81
B1: no binding.
